The values below are quoted from earlier work in PMC10950897, “VCF1 is a p97/VCP cofactor promoting recognition of ubiquitylated p97-UFD1-NPL4 substrates” (Nature Communications, 2024).

The data set has as its target p97 (Homo sapiens) (UniProt P55072).

Sequence of p47 (Q9UNZ2 whole entry): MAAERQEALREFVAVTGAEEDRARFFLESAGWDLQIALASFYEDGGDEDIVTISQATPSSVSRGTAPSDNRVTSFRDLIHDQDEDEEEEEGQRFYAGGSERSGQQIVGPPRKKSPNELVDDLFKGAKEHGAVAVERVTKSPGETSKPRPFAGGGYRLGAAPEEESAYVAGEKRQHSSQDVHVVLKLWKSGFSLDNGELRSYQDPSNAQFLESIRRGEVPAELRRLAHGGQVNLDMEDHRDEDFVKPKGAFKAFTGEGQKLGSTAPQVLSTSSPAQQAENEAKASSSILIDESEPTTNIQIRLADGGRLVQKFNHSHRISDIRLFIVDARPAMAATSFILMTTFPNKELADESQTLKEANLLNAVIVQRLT
Sequence of p97 (Homo sapiens) (P55072 2-806): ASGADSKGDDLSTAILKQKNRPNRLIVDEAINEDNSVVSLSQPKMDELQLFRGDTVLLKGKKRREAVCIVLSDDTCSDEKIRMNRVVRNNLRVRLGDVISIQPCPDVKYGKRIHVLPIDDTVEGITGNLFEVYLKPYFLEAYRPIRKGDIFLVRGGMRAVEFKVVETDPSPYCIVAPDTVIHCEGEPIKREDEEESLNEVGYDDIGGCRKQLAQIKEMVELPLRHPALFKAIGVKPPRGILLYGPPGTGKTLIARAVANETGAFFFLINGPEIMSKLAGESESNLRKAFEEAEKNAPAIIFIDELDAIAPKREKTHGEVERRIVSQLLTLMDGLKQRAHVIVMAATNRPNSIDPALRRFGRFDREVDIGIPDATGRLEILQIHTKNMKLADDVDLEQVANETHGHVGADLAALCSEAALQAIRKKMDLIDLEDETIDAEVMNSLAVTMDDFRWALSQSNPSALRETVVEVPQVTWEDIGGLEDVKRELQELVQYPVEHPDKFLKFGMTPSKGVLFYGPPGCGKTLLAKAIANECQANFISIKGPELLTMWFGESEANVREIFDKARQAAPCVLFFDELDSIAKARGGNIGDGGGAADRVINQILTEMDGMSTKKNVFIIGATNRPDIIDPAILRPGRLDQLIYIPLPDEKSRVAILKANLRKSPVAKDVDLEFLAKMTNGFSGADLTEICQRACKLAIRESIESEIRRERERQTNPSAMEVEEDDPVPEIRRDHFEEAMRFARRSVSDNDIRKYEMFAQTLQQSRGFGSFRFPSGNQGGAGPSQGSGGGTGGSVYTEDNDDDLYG

In the case of p47 (from UniProt Q9UNZ2), the Kd – broadly, the concentration at which binding is half-saturated – was 350 nM.
